According to paper PMC6606808:

Target: Acinetobacter baumannii AdeB multidrug efflux pump (Acinetobacter baumannii AB0057)
Assay: cryo-EM structure; single-particle cryo-EM of purified AdeB reconstituted in lipidic nanodiscs (MSP 1E3D1, E. coli total extract lipid); 20 mM Tris-HCl pH 7.5, 100 mM NaCl; no substrate; C3 symmetry; 2.98 Å

Substance: Acinetobacter baumannii AdeB multidrug efflux pump (natural protein)
- stoichiometry N: 3
